Test [1] concerns the target T1, GFP-tagged AP-3 complex (Apl6 tagged C-terminally with mGFP) (S. cerevisiae, UniProt Q08951 1-932; P46682 1-809; P38153 1-483; P47064 1-194).
T1 construct: Apl5, δ-subunit of the yeast AP-3 complex; Apl6, β3-subunit of the yeast AP-3 complex; Apm3, μ3-subunit of the yeast AP-3 complex; Aps3, σ-subunit of the yeast AP-3 complex; also called GFP-AP-3; source: yeast strain with Apl6 fused to GFP, purified; labelled via anti-GFP nanobody carrying DY647 or Alexa Fluor 568; not shown: mGFP, C-terminal, kept; copies: + + +
Description: single-molecule TIRF microscopy on polymer-supported membranes; polymer-supported membranes (Golgi mixture with 1 mol% PI4P) with or without Arf1 (10 nM), Sec7ΔC (10 nM) and 400 μM GTPγS, or reconstituted Vam3; GFP-tagged AP-3 (2 nM) labelled with anti-GFP nanobody-Dy647; room temperature; monitored 45 min. The conditions noted are these: both partners purified.

In test [2] the target is T1, GFP-tagged AP-3 complex (Apl6 tagged …). Description: single-molecule tracking of cargo mobility (TIRF microscopy); labelled Vam3 in polymer-supported membranes tracked before and after the addition of AP-3; without Arf1 and Sec7. The conditions noted are these: both partners purified.

T1 sequence (Q08951 whole entry, chain 1 of 4, the tested form may be a part): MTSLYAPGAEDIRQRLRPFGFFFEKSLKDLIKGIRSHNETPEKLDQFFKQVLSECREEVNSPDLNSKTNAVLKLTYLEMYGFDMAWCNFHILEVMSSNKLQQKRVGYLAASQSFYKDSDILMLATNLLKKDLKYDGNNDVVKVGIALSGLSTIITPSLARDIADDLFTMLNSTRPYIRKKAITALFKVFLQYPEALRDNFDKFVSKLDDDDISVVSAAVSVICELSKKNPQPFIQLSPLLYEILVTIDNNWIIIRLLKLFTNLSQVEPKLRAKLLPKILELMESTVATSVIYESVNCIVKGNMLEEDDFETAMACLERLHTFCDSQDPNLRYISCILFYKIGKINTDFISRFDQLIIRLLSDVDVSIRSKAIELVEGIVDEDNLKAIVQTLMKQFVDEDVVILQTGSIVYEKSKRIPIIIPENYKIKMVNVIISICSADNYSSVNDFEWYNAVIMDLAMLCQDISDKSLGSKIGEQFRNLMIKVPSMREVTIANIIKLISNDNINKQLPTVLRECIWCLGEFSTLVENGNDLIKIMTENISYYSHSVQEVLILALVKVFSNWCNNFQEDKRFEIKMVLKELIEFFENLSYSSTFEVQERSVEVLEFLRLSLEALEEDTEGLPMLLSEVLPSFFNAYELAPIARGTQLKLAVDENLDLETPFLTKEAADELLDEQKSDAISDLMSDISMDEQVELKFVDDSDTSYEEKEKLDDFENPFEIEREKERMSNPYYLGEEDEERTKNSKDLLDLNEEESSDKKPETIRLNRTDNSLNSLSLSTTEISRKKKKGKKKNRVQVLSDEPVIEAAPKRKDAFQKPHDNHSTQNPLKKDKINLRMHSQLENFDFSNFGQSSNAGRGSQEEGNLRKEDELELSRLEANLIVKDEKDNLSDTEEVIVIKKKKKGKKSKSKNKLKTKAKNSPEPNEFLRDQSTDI
T1 sequence (P46682 whole entry, chain 2 of 4, the tested form may be a part): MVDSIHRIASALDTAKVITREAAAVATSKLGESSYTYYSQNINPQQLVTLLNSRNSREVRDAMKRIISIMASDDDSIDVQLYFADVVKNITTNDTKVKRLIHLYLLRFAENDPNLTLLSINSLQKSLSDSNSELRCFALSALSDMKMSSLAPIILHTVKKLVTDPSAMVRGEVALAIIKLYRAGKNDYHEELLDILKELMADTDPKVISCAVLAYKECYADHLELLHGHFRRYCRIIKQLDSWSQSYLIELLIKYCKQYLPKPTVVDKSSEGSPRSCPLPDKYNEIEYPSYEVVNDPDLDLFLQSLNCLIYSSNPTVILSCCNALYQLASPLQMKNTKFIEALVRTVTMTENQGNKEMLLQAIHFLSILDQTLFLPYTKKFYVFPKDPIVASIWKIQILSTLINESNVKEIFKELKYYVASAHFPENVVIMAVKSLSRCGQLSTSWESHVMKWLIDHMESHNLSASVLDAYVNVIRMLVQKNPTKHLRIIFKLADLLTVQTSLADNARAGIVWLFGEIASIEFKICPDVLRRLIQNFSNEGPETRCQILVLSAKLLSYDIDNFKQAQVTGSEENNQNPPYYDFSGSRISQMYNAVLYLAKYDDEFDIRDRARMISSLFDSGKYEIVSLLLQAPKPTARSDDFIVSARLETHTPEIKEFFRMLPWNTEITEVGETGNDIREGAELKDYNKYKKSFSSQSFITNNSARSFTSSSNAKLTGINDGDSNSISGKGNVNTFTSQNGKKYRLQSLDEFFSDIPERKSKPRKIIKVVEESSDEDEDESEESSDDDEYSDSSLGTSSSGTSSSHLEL
T1 sequence (P38153 whole entry, chain 3 of 4, the tested form may be a part): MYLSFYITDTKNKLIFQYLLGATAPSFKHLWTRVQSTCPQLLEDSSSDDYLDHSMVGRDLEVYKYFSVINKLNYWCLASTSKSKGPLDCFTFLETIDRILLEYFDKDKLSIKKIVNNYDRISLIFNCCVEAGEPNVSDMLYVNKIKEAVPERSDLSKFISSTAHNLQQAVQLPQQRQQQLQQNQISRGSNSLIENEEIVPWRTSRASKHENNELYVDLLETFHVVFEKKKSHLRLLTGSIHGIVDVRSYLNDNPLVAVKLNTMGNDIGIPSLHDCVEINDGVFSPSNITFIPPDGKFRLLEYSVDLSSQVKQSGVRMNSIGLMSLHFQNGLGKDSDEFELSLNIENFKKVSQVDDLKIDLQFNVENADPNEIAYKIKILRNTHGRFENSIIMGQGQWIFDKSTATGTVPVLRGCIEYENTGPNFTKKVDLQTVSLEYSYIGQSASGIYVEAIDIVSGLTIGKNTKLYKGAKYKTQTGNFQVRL
T1 sequence (P47064 whole entry, chain 4 of 4, the tested form may be a part): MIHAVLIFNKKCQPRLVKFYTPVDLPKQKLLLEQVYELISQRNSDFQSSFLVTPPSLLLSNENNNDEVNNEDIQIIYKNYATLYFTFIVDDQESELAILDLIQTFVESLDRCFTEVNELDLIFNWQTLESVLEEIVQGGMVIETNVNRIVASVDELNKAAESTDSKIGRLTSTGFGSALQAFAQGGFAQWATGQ

B1: Vam3 (yeast vacuolar SNARE, AP-3 cargo with dileucine motif) (natural protein, UniProt Q12241 1-283, looked up)
chain: MSFFDIEAQSSKGNSQQEPQFSTNQKTKELSNLIETFAEQSRVLEKECTKIGSKRDSKELRYKIETELIPNCTSVRDKIESNILIHQNGKLSADFKNLKTKYQSLQQSYNQRKSLFPLKTPISPGTSKERKDIHPRTEAVRQDPESSYISIKVNEQSPLLHNEGQHQLQLQEEQEQQQQGLSQEELDFQTIIHQERSQQIGRIHTAVQEVNAIFHQLGSLVKEQGEQVTTIDENISHLHDNMQNANKQLTRADQHQRDRNKCGKVTLIIIIVVCMVVLLAVLS
notes: Vam3, yeast SNARE; transmembrane domain aa 263–283; source: reconstituted into proteoliposomes or polymer-supported membranes
B1: the binding result in test [1] was “binds”.

B2: Vam3 labelled with Atto 647N (natural protein, yeast, UniProt Q12241 1-283, looked up)
chain: MSFFDIEAQSSKGNSQQEPQFSTNQKTKELSNLIETFAEQSRVLEKECTKIGSKRDSKELRYKIETELIPNCTSVRDKIESNILIHQNGKLSADFKNLKTKYQSLQQSYNQRKSLFPLKTPISPGTSKERKDIHPRTEAVRQDPESSYISIKVNEQSPLLHNEGQHQLQLQEEQEQQQQGLSQEELDFQTIIHQERSQQIGRIHTAVQEVNAIFHQLGSLVKEQGEQVTTIDENISHLHDNMQNANKQLTRADQHQRDRNKCGKVTLIIIIVVCMVVLLAVLS
modifications: Atto 647N (Maleimide)
notes: Vam3, yeast SNARE; also called prelabeled transmembrane cargo; source: reconstituted into polymer-supported membranes
In the case of B2, the binding result in test [2] was “binds”.

The values above are taken from article PMC8591511, “Flexible open conformation of the AP-3 complex explains its role in cargo recruitment at the Golgi” (The Journal of Biological Chemistry, 2021).
